The values below come from the Human Domainome abundance scans (Beltran et al. 2025).

± gives the uncertainty stated by the source.

The labels stand for the following.
B1: V(D)J recombination-activating protein 2, residues 415 to 491; numbered along this chain, P55895 (parent)
chain: YWITCCPTCDVDINTWVPFYSTELNKPAMIYCSHGDGHWVHAQCMDLAERTLIHLSAGSNKYYCNEHVEIARALHTP

The series covers variants of B1. Briefly: abundance fitness (aPCA) (normalised: wild type 0, dead -1); higher = more abundant; growth selection in yeast, the domain comes from the species named. To be noted: Homo sapiens.
Turning to YWVTCCPTCDVDINTWVPFYSTELNKPAMIYCSHGDGHWVHAQCMDLAERTLIHLSAGSNKYYCNEHVEIARALHTP [I3V], the abundance fitness is -0.053 ± 0.042.
Turning to YWTTCCPTCDVDINTWVPFYSTELNKPAMIYCSHGDGHWVHAQCMDLAERTLIHLSAGSNKYYCNEHVEIARALHTP [I3T], the abundance fitness is -0.102 ± 0.08.
With YWHTCCPTCDVDINTWVPFYSTELNKPAMIYCSHGDGHWVHAQCMDLAERTLIHLSAGSNKYYCNEHVEIARALHTP [I3H], the abundance fitness was -0.265 ± 0.078.
Regarding YWDTCCPTCDVDINTWVPFYSTELNKPAMIYCSHGDGHWVHAQCMDLAERTLIHLSAGSNKYYCNEHVEIARALHTP [I3D], the abundance fitness stood at 0.004 ± 0.071.
Take YWETCCPTCDVDINTWVPFYSTELNKPAMIYCSHGDGHWVHAQCMDLAERTLIHLSAGSNKYYCNEHVEIARALHTP [I3E]: the abundance fitness is -0.082 ± 0.074.
Then YWPTCCPTCDVDINTWVPFYSTELNKPAMIYCSHGDGHWVHAQCMDLAERTLIHLSAGSNKYYCNEHVEIARALHTP [I3P], with -0.623 ± 0.078; and YWQTCCPTCDVDINTWVPFYSTELNKPAMIYCSHGDGHWVHAQCMDLAERTLIHLSAGSNKYYCNEHVEIARALHTP [I3Q], with -0.186 ± 0.075.
As for YWMTCCPTCDVDINTWVPFYSTELNKPAMIYCSHGDGHWVHAQCMDLAERTLIHLSAGSNKYYCNEHVEIARALHTP [I3M], the abundance fitness was -0.041 ± 0.07.
Consider YWFTCCPTCDVDINTWVPFYSTELNKPAMIYCSHGDGHWVHAQCMDLAERTLIHLSAGSNKYYCNEHVEIARALHTP [I3F], for which the abundance fitness was determined as 0.044 ± 0.082.
As to YWWTCCPTCDVDINTWVPFYSTELNKPAMIYCSHGDGHWVHAQCMDLAERTLIHLSAGSNKYYCNEHVEIARALHTP [I3W], the abundance fitness is -0.159 ± 0.068.
As to YQITCCPTCDVDINTWVPFYSTELNKPAMIYCSHGDGHWVHAQCMDLAERTLIHLSAGSNKYYCNEHVEIARALHTP [W2Q], the abundance fitness was -0.382 ± 0.14.
For YLITCCPTCDVDINTWVPFYSTELNKPAMIYCSHGDGHWVHAQCMDLAERTLIHLSAGSNKYYCNEHVEIARALHTP [W2L], the abundance fitness is -0.467 ± 0.066.
For the variant YMITCCPTCDVDINTWVPFYSTELNKPAMIYCSHGDGHWVHAQCMDLAERTLIHLSAGSNKYYCNEHVEIARALHTP [W2M], the abundance fitness was -0.226 ± 0.052.
On to YVITCCPTCDVDINTWVPFYSTELNKPAMIYCSHGDGHWVHAQCMDLAERTLIHLSAGSNKYYCNEHVEIARALHTP [W2V], for which the abundance fitness was -0.853 ± 0.11.
Take YPITCCPTCDVDINTWVPFYSTELNKPAMIYCSHGDGHWVHAQCMDLAERTLIHLSAGSNKYYCNEHVEIARALHTP [W2P]: the abundance fitness was -0.299 ± 0.14.
For the variant YNITCCPTCDVDINTWVPFYSTELNKPAMIYCSHGDGHWVHAQCMDLAERTLIHLSAGSNKYYCNEHVEIARALHTP [W2N], the abundance fitness was 0.12 ± 0.31.
The result for YRITCCPTCDVDINTWVPFYSTELNKPAMIYCSHGDGHWVHAQCMDLAERTLIHLSAGSNKYYCNEHVEIARALHTP [W2R] reads -0.378 ± 0.054.
For YKITCCPTCDVDINTWVPFYSTELNKPAMIYCSHGDGHWVHAQCMDLAERTLIHLSAGSNKYYCNEHVEIARALHTP [W2K], the abundance fitness was -0.162 ± 0.13.
Take YYITCCPTCDVDINTWVPFYSTELNKPAMIYCSHGDGHWVHAQCMDLAERTLIHLSAGSNKYYCNEHVEIARALHTP [W2Y]: the abundance fitness was 0.055 ± 0.1.
Consider YWITCSPTCDVDINTWVPFYSTELNKPAMIYCSHGDGHWVHAQCMDLAERTLIHLSAGSNKYYCNEHVEIARALHTP [C6S], for which the abundance fitness worked out at 0.209 ± 0.19.
YWITCGPTCDVDINTWVPFYSTELNKPAMIYCSHGDGHWVHAQCMDLAERTLIHLSAGSNKYYCNEHVEIARALHTP [C6G]: the abundance fitness was -0.024 ± 0.39.
For the variant YWITCMPTCDVDINTWVPFYSTELNKPAMIYCSHGDGHWVHAQCMDLAERTLIHLSAGSNKYYCNEHVEIARALHTP [C6M], the abundance fitness is -0.393 ± 0.35.
The result for YWITCRPTCDVDINTWVPFYSTELNKPAMIYCSHGDGHWVHAQCMDLAERTLIHLSAGSNKYYCNEHVEIARALHTP [C6R] reads -0.432 ± 0.17.
On to YWITCFPTCDVDINTWVPFYSTELNKPAMIYCSHGDGHWVHAQCMDLAERTLIHLSAGSNKYYCNEHVEIARALHTP [C6F], for which the abundance fitness is -0.304 ± 0.48.
On to YWITCKPTCDVDINTWVPFYSTELNKPAMIYCSHGDGHWVHAQCMDLAERTLIHLSAGSNKYYCNEHVEIARALHTP [C6K], for which the abundance fitness is -0.28 ± 0.16.
In the case of YWITCLPTCDVDINTWVPFYSTELNKPAMIYCSHGDGHWVHAQCMDLAERTLIHLSAGSNKYYCNEHVEIARALHTP [C6L], the abundance fitness is -0.284 ± 0.33.
The result for YWITCVPTCDVDINTWVPFYSTELNKPAMIYCSHGDGHWVHAQCMDLAERTLIHLSAGSNKYYCNEHVEIARALHTP [C6V] reads -0.096 ± 0.26.
Take YWITCCPPCDVDINTWVPFYSTELNKPAMIYCSHGDGHWVHAQCMDLAERTLIHLSAGSNKYYCNEHVEIARALHTP [T8P]: the abundance fitness was -0.159 ± 0.3.
YWITCCPQCDVDINTWVPFYSTELNKPAMIYCSHGDGHWVHAQCMDLAERTLIHLSAGSNKYYCNEHVEIARALHTP [T8Q]: the abundance fitness was -0.258 ± 0.2.
Take YWITCCPRCDVDINTWVPFYSTELNKPAMIYCSHGDGHWVHAQCMDLAERTLIHLSAGSNKYYCNEHVEIARALHTP [T8R]: the abundance fitness was -0.204 ± 0.2.
Take YWITCCPDCDVDINTWVPFYSTELNKPAMIYCSHGDGHWVHAQCMDLAERTLIHLSAGSNKYYCNEHVEIARALHTP [T8D]: the abundance fitness is -0.279 ± 0.35.
As to YWITCCPECDVDINTWVPFYSTELNKPAMIYCSHGDGHWVHAQCMDLAERTLIHLSAGSNKYYCNEHVEIARALHTP [T8E], the abundance fitness stood at 0.058 ± 0.17.
Consider YWITCCPNCDVDINTWVPFYSTELNKPAMIYCSHGDGHWVHAQCMDLAERTLIHLSAGSNKYYCNEHVEIARALHTP [T8N], for which the abundance fitness was determined as 0.091 ± 0.18.
Consider YWITCCPACDVDINTWVPFYSTELNKPAMIYCSHGDGHWVHAQCMDLAERTLIHLSAGSNKYYCNEHVEIARALHTP [T8A], for which the abundance fitness is -0.437 ± 0.17.
The result for YWITCCPKCDVDINTWVPFYSTELNKPAMIYCSHGDGHWVHAQCMDLAERTLIHLSAGSNKYYCNEHVEIARALHTP [T8K] reads -0.123 ± 0.17.
With YWITCCPGCDVDINTWVPFYSTELNKPAMIYCSHGDGHWVHAQCMDLAERTLIHLSAGSNKYYCNEHVEIARALHTP [T8G], the abundance fitness was -0.277 ± 0.14.
